Assay [1] deals with dH5-I (cdH5-0 heat-cycled at pH 7) (influenza A virus H5N1 strain A/Vietnam/1203/04) (UniProt Q8QPL1). Kind of assay: ELISA, coated H5 form; scaled. In general terms: ELISA stands for enzyme-linked immunosorbent assay.
For assay [2], the target named is fdH5-0 (ultrafiltrated dH5-0: flow-through of cdH5-0 through a 1,000 kDa cut-off filter) (influenza A virus H5N1 strain A/Vietnam/1203/04). The assay can be described thus: ELISA, coated H5 form; scaled.
For assay [3], the target named is dH5-III (cdH5-0 incubated about 16 h at 47.5 C) (influenza A virus H5N1 strain A/Vietnam/1203/04) (UniProt Q8QPL1). Kind of assay: ELISA, coated H5 form; scaled.
In assay [4] the target is dH5-II (cdH5-0 heat-cycled at pH 2, back to pH 7) (influenza A virus H5N1 strain A/Vietnam/1203/04) (UniProt Q8QPL1). Kind of assay: ELISA, coated H5 form; scaled.
For assay [5], the target named is cdH5-0 (supernatant of dH5-0 after 10 minutes centrifugation at 16,000-18,000*g) (influenza A virus H5N1 strain A/Vietnam/1203/04). Kind of assay: ELISA, coated H5 form; scaled.
The target in assay [6] is non-treated H5 (nH5) of H5N1 strain A/Vietnam/1203/04 (Protein Sciences) (influenza A virus H5N1 strain A/Vietnam/1203/04). Kind of assay: ELISA, coated nH5, antibody 1:2000.
For assay [7], the target named is dOVA-1: ovalbumin 5.2 mg/ml in HBS, acidified with HCl, 40 minutes at 37 C, neutralized (chicken) (UniProt P01012). The assay can be described thus: ELISA, immobilized OVA form.
The target of assay [8] is cross-beta nOVA: ovalbumin (chicken egg-white albumin) dissolved at 1 mg/ml in PBS (chicken) (UniProt P01012). The assay can be described thus: ELISA, immobilized OVA form.
Assay [9] has as its target dOVA-2: ovalbumin 1 mg/ml in PBS, five heat cycles 30 to 85 C (chicken) (UniProt P01012). Kind of assay: ELISA, immobilized OVA form.
Assay [10] has as its target dOVA-3: ovalbumin 1 mg/ml in PBS, about 16 h at 75 C (chicken) (UniProt P01012). Kind of assay: ELISA, immobilized OVA form.
Assay [11] has as its target dH5-I (cdH5-0 heat-cycled at pH 7) (influenza A virus H5N1 strain A/Vietnam/1203/04) (UniProt Q8QPL1). Kind of assay: ELISA, immobilized H5; normalized to cdH5-0.
For assay [12], the target named is fdH5-0 (ultrafiltrated dH5-0: flow-through of cdH5-0 through a 1,000 kDa cut-off filter) (influenza A virus H5N1 strain A/Vietnam/1203/04). Kind of assay: ELISA, immobilized H5; normalized to cdH5-0.
The target in assay [13] is cdH5-0 (supernatant of dH5-0 after 10 minutes centrifugation at 16,000-18,000*g) (influenza A virus H5N1 strain A/Vietnam/1203/04). Kind of assay: ELISA, immobilized H5; normalized to cdH5-0.
The target of assay [14] is cross-beta nOVA: ovalbumin (chicken egg-white albumin) dissolved at 1 mg/ml in PBS (chicken) (UniProt P01012). Kind of assay: ELISA, immobilized OVA; normalized to nOVA.
Assay [15] deals with fdH5-0 (ultrafiltrated dH5-0: flow-through of cdH5-0 through a 1,000 kDa cut-off filter) (influenza A virus H5N1 strain A/Vietnam/1203/04). The assay can be described thus: ELISA, coated H5 form, tPA series with excess e-amino caproic acid.
Assay [16] deals with cdH5-0 (supernatant of dH5-0 after 10 minutes centrifugation at 16,000-18,000*g) (influenza A virus H5N1 strain A/Vietnam/1203/04). Described as above.

In the case of “HyTest IgG2a clone 8D2, mouse monoclonal anti-H5 antibody”, the relative affinity kD in assay [1] was determined as 34 a.u; in [2], 125 a.u; in assay [3] it was 72 a.u; in [4] it was 36 a.u; in [5], 100 a.u.

As for “HyTest IgG2a clone 15A6, mouse monoclonal anti-H5 antibody”, the relative affinity kD in [1] worked out at 105 a.u; in assay [2], 204 a.u; in assay [3] it was 76 a.u; in assay [4] it was 31 a.u; in assay [5], 100 a.u.

Regarding “HyTest clone 17C8, mouse monoclonal anti-H5 antibody”, the relative affinity kD amounted to 51 a.u in assay [1]; 128 a.u in [2]; 68 a.u in assay [3]; 34 a.u in assay [4]; 100 a.u in assay [5].

In the case of “Rockland anti-H5 A/VN/1203/04 mouse monoclonal antibody, catalogue number 200-301-975”, the relative affinity kD is 47 a.u in assay [1]; 103 a.u in [2]; 78 a.u in [3]; 79 a.u in [4]; 100 a.u in assay [5]. The ELISA signal in [6] came to 1.5.

Regarding “Rockland anti-H5 A/VN/1203/04 mouse monoclonal antibody, catalogue number 200-301-976”, the relative affinity kD in assay [1] was determined as 0 a.u; in assay [2], 105 a.u; in assay [3], 127 a.u; in assay [4], 132 a.u; in assay [5], 100 a.u.

With “Rockland anti-H5 A/VN/1203/04 mouse monoclonal antibody, catalogue number 200-301-977”, the relative affinity kD stood at 0 a.u in assay [1]; 93 a.u in assay [2]; 35 a.u in assay [3]; 0 a.u in assay [4]; 100 a.u in [5].

As for “Rockland anti-H5 A/VN/1203/04 mouse monoclonal antibody, catalogue number 200-301-978”, the relative affinity kD in assay [1] is 115 a.u; in assay [2] it was 107 a.u; in assay [3], 112 a.u; in [4], 31 a.u; in assay [5], 100 a.u.

With “Rockland anti-H5 A/VN/1203/04 mouse monoclonal antibody, catalogue number 200-301-979”, the relative affinity kD in [1] came out at 125 a.u; in assay [2] it was 97 a.u; in [3] it was 126 a.u; in assay [4], 83 a.u; in assay [5], 100 a.u.

On to Sigma C6534 anti-OVA antibody, for which the relative affinity kD was 44 a.u in assay [7], 84.9 a.u in assay [8], 221 a.u in assay [9] and 287 a.u in assay [10].

As to “fourth and fifth finger domain of fibronectin (Fn F4-5), with C-terminal FLAG-tag (from UniProt P02751 183-275)”, the Normalized affinity, kD (%) in [11] was 0%; in [12], 69%; in [13], 100%; in [14] it was 100%.

“monoclonal anti-OVA IgG (A6075, Sigma) (antibody)” showed a relative affinity kD in assay [7] of 20.8 a.u.

For “mouse HYB 099-01 (IgG1) anti-OVA monoclonal antibody”, the relative affinity kD was determined as 115 a.u in assay [7], 98.5 a.u in [8], 129 a.u in [9] and 80.9 a.u in assay [10].

Turning to “mouse HYB 099-02 (IgG1) anti-OVA monoclonal antibody”, the relative affinity kD in [7] was found to be 154 a.u; in assay [8] it was 103 a.u; in assay [9], 118 a.u; in assay [10], 154 a.u.

Regarding “mouse HYB 099-09 (IgG1) anti-OVA monoclonal antibody”, the relative affinity kD in assay [7] was 127 a.u; in [8], 71.2 a.u; in assay [9] it was 85.1 a.u; in [10], 164 a.u.

For the substance “tissue type plasminogen activator (tPA; Actilyse, Boehringer-Ingelheim) (from UniProt P00750 36-562) (enzyme)”, the Bmax in assay [15] stood at 0.37; in assay [16], 0.36.

These data come from patent US20090142377A1.
